{"source": "paper PMC7690626", "about": "(2020)", "binders": {"B1": {"name": "CXCR4 receptor on human Toledo diffuse large B-cell lymphoma cells (receptor)", "chain": "MEGISIYTSDNYTEEMGSGDYDSMKEPCFREENANFNKIFLPTIYSIIFLTGIVGNGLVILVMGYQKKLRSMTDKYRLHLSVADLLFVITLPFWAVDAVANWYFGNFLCKAVHVIYTVNLYSSVLILAFISLDRYLAIVHATNSQRPRKLLAEKVVYVGVWIPALLLTIPDFIFANVSEADDRYICDRFYPNDLWVVVFQFQHIMVGLILPGIVILSCYCIIISKLSHSKGHQKRKALKTTVILILAFFACWLPYYIGISIDSFILLEIIKQGCEFENTVHKWISITEALAFFHCCLNPILYAFLGAKFKTSAQHALTSVSRGSSLKILSKGKRGGHSSVSTESESSSFHSS"}}, "assay_in_all_cases": "FACS; CXCR4+ Toledo cells", "key": {"[1]": {"target": "T22-GFP-H6-ATTO nanoconjugate (T22-GFP-H6 labeled with ATTO488) (horseshoe crab | , UniProt P14216, ATTO488 covalently bound through exposed external lysines (NHS-ester to amine); Poisson dye load distribution, positions not given)"}, "[2]": {"target": "T22-GFP-H6 protein nanoparticle (unlabeled) (horseshoe crab | , UniProt P14216)"}, "[3]": {"target": "T22-GFP-H6-S-Cy5 nanoconjugate (T22-GFP-H6 labeled with Sulfo-Cyanine5) (horseshoe crab | , UniProt P14216, Sulfo-Cyanine 5 covalently bound through exposed external lysines (NHS-ester to amine); Poisson dye load distribution, positions not given)"}}}
{"binder": "B1", "values": [{"measurement": "Kd", "setting": "[1]", "result": 250, "unit": "nM"}, {"measurement": "Kd", "setting": "[2]", "result": 140, "unit": "nM"}, {"measurement": "Kd", "setting": "[3]", "result": 540, "unit": "nM"}]}
